Test results as given in PMC11414387.

Target: FBXO11 (UniProt Q86XK2)
Experiment: co-IP of exogenous proteins
Details: reference: wild type

binding against the reference (sites S33) | binding against the reference (sites S37) | Substance
lost |  | β-catenin (from UniProt P35222) S33A
 | lost | β-catenin (from UniProt P35222) S37A
